Source: patent publication US20200283741

Assays:
[1] = target: T1, HbA1c-type αF8P (α-fructosyl-valyl-histidyl-leucyl-threonyl-prolyl-glutamyl-glutamyl-lysine)
T1 chain: VHLTPEEK

HbC1c-type αF8P = target: T2, HbC1c-type αF8P
T2 chain: VHLTPKEK

HbS1c-type αF8P = target: T3, HbS1c-type αF8P
T3 chain: VHLTPVEK

Protein | relative activity on substrate (reference, designated as 100%) [1] [%] | specific activity on substrate [1] | relative activity (HbC1c/HbA1c), fold over H40-3M before modification (HbC1c-type αF8P) | relative activity on substrate (activity on HbA1c-type αF8P = 100%) (HbC1c-type αF8P) [%] | specific activity on substrate (HbC1c-type αF8P) | relative activity (HbS1c/HbA1c), fold over H40-3M before modification (HbS1c-type αF8P) | relative activity on substrate (activity on HbA1c-type αF8P = 100%) (HbS1c-type αF8P) [%] | specific activity on substrate (HbS1c-type αF8P)
CFP-T7-H40-3M K106A (protein) MTSNRADTRVIVVGGGGTIGSSTALHLVRSGYAPANITVLDTFEIPSAQSAGHDLNKIMGIDHGNKVNLQMSLEARQMWKEDELFQPFFHNTGRMDCESTPKGIEALKKYYQKLHDAGAGLEKTHAWLDNEDEILSKMPLLQRDQIQGWKAIWSQDGGWLAAAKAINAIGQFLKERGVKFGFGGAGSFKQPLFDDEGTTCIGVETADGTKYYADKVVLAAGAWSPTLVDLEDQCCSKAWVYAHIQLTPEEAAEYKGVPVVYNSEYGFFFEPDEFGVIKVCNEFPGFSRFKEHQPYGAPSPKRISVPRSHAKHPTDTYPDASEVSIKKAIATFLPRFQDKELFNRALCWCTDTADSTLLMCEHPKWKNFILATGDSGHSFKILPNVGKYVVELIEGRLPEEMAYQWRWRPGGDALKSRRAAPPKDLADMPGWKHDPKL | 100 | at least 20 mU/mg | improved by about 2.8 to 9.4 times | 31 | at least 20 mU/mg | improved by about 2.1 to 3.3 times | 81 | at least 20 mU/mg
CFP-T7-H40-3M K106D (protein) MTSNRADTRVIVVGGGGTIGSSTALHLVRSGYAPANITVLDTFEIPSAQSAGHDLNKIMGIDHGNKVNLQMSLEARQMWKEDELFQPFFHNTGRMDCESTPKGIEDLKKYYQKLHDAGAGLEKTHAWLDNEDEILSKMPLLQRDQIQGWKAIWSQDGGWLAAAKAINAIGQFLKERGVKFGFGGAGSFKQPLFDDEGTTCIGVETADGTKYYADKVVLAAGAWSPTLVDLEDQCCSKAWVYAHIQLTPEEAAEYKGVPVVYNSEYGFFFEPDEFGVIKVCNEFPGFSRFKEHQPYGAPSPKRISVPRSHAKHPTDTYPDASEVSIKKAIATFLPRFQDKELFNRALCWCTDTADSTLLMCEHPKWKNFILATGDSGHSFKILPNVGKYVVELIEGRLPEEMAYQWRWRPGGDALKSRRAAPPKDLADMPGWKHDPKL | 100 | at least 20 mU/mg |  | 48 | at least 20 mU/mg |  | 83 | at least 20 mU/mg
CFP-T7-H40-3M K113A (protein) MTSNRADTRVIVVGGGGTIGSSTALHLVRSGYAPANITVLDTFEIPSAQSAGHDLNKIMGIDHGNKVNLQMSLEARQMWKEDELFQPFFHNTGRMDCESTPKGIEKLKKYYQALHDAGAGLEKTHAWLDNEDEILSKMPLLQRDQIQGWKAIWSQDGGWLAAAKAINAIGQFLKERGVKFGFGGAGSFKQPLFDDEGTTCIGVETADGTKYYADKVVLAAGAWSPTLVDLEDQCCSKAWVYAHIQLTPEEAAEYKGVPVVYNSEYGFFFEPDEFGVIKVCNEFPGFSRFKEHQPYGAPSPKRISVPRSHAKHPTDTYPDASEVSIKKAIATFLPRFQDKELFNRALCWCTDTADSTLLMCEHPKWKNFILATGDSGHSFKILPNVGKYVVELIEGRLPEEMAYQWRWRPGGDALKSRRAAPPKDLADMPGWKHDPKL | 100 | at least 20 mU/mg |  | 38 | at least 20 mU/mg |  | 104 | at least 20 mU/mg
CFP-T7-H40-3M K113E (protein) MTSNRADTRVIVVGGGGTIGSSTALHLVRSGYAPANITVLDTFEIPSAQSAGHDLNKIMGIDHGNKVNLQMSLEARQMWKEDELFQPFFHNTGRMDCESTPKGIEKLKKYYQELHDAGAGLEKTHAWLDNEDEILSKMPLLQRDQIQGWKAIWSQDGGWLAAAKAINAIGQFLKERGVKFGFGGAGSFKQPLFDDEGTTCIGVETADGTKYYADKVVLAAGAWSPTLVDLEDQCCSKAWVYAHIQLTPEEAAEYKGVPVVYNSEYGFFFEPDEFGVIKVCNEFPGFSRFKEHQPYGAPSPKRISVPRSHAKHPTDTYPDASEVSIKKAIATFLPRFQDKELFNRALCWCTDTADSTLLMCEHPKWKNFILATGDSGHSFKILPNVGKYVVELIEGRLPEEMAYQWRWRPGGDALKSRRAAPPKDLADMPGWKHDPKL | 100 | at least 20 mU/mg |  | 91 | at least 20 mU/mg |  | 97 | at least 20 mU/mg
CFP-T7-H40-3M K113S (protein) MTSNRADTRVIVVGGGGTIGSSTALHLVRSGYAPANITVLDTFEIPSAQSAGHDLNKIMGIDHGNKVNLQMSLEARQMWKEDELFQPFFHNTGRMDCESTPKGIEKLKKYYQSLHDAGAGLEKTHAWLDNEDEILSKMPLLQRDQIQGWKAIWSQDGGWLAAAKAINAIGQFLKERGVKFGFGGAGSFKQPLFDDEGTTCIGVETADGTKYYADKVVLAAGAWSPTLVDLEDQCCSKAWVYAHIQLTPEEAAEYKGVPVVYNSEYGFFFEPDEFGVIKVCNEFPGFSRFKEHQPYGAPSPKRISVPRSHAKHPTDTYPDASEVSIKKAIATFLPRFQDKELFNRALCWCTDTADSTLLMCEHPKWKNFILATGDSGHSFKILPNVGKYVVELIEGRLPEEMAYQWRWRPGGDALKSRRAAPPKDLADMPGWKHDPKL | 100 | at least 20 mU/mg | improved by about 2.8 to 9.4 times | 103 | at least 20 mU/mg | improved by about 2.1 to 3.3 times | 130 | at least 20 mU/mg
CFP-T7-H40-3M K113T (protein) MTSNRADTRVIVVGGGGTIGSSTALHLVRSGYAPANITVLDTFEIPSAQSAGHDLNKIMGIDHGNKVNLQMSLEARQMWKEDELFQPFFHNTGRMDCESTPKGIEKLKKYYQTLHDAGAGLEKTHAWLDNEDEILSKMPLLQRDQIQGWKAIWSQDGGWLAAAKAINAIGQFLKERGVKFGFGGAGSFKQPLFDDEGTTCIGVETADGTKYYADKVVLAAGAWSPTLVDLEDQCCSKAWVYAHIQLTPEEAAEYKGVPVVYNSEYGFFFEPDEFGVIKVCNEFPGFSRFKEHQPYGAPSPKRISVPRSHAKHPTDTYPDASEVSIKKAIATFLPRFQDKELFNRALCWCTDTADSTLLMCEHPKWKNFILATGDSGHSFKILPNVGKYVVELIEGRLPEEMAYQWRWRPGGDALKSRRAAPPKDLADMPGWKHDPKL | 100 | at least 20 mU/mg |  | 40 | at least 20 mU/mg |  | 104 | at least 20 mU/mg
CFP-T7-H40-3M K113N (protein) MTSNRADTRVIVVGGGGTIGSSTALHLVRSGYAPANITVLDTFEIPSAQSAGHDLNKIMGIDHGNKVNLQMSLEARQMWKEDELFQPFFHNTGRMDCESTPKGIEKLKKYYQNLHDAGAGLEKTHAWLDNEDEILSKMPLLQRDQIQGWKAIWSQDGGWLAAAKAINAIGQFLKERGVKFGFGGAGSFKQPLFDDEGTTCIGVETADGTKYYADKVVLAAGAWSPTLVDLEDQCCSKAWVYAHIQLTPEEAAEYKGVPVVYNSEYGFFFEPDEFGVIKVCNEFPGFSRFKEHQPYGAPSPKRISVPRSHAKHPTDTYPDASEVSIKKAIATFLPRFQDKELFNRALCWCTDTADSTLLMCEHPKWKNFILATGDSGHSFKILPNVGKYVVELIEGRLPEEMAYQWRWRPGGDALKSRRAAPPKDLADMPGWKHDPKL | 100 | at least 20 mU/mg |  | 42 | at least 20 mU/mg |  | 95 | at least 20 mU/mg
CFP-T7-H40-3M K113Q (protein) MTSNRADTRVIVVGGGGTIGSSTALHLVRSGYAPANITVLDTFEIPSAQSAGHDLNKIMGIDHGNKVNLQMSLEARQMWKEDELFQPFFHNTGRMDCESTPKGIEKLKKYYQQLHDAGAGLEKTHAWLDNEDEILSKMPLLQRDQIQGWKAIWSQDGGWLAAAKAINAIGQFLKERGVKFGFGGAGSFKQPLFDDEGTTCIGVETADGTKYYADKVVLAAGAWSPTLVDLEDQCCSKAWVYAHIQLTPEEAAEYKGVPVVYNSEYGFFFEPDEFGVIKVCNEFPGFSRFKEHQPYGAPSPKRISVPRSHAKHPTDTYPDASEVSIKKAIATFLPRFQDKELFNRALCWCTDTADSTLLMCEHPKWKNFILATGDSGHSFKILPNVGKYVVELIEGRLPEEMAYQWRWRPGGDALKSRRAAPPKDLADMPGWKHDPKL | 100 | at least 20 mU/mg |  | 50 | at least 20 mU/mg |  | 106 | at least 20 mU/mg
CFP-T7-H40-3M K113D (protein) MTSNRADTRVIVVGGGGTIGSSTALHLVRSGYAPANITVLDTFEIPSAQSAGHDLNKIMGIDHGNKVNLQMSLEARQMWKEDELFQPFFHNTGRMDCESTPKGIEKLKKYYQDLHDAGAGLEKTHAWLDNEDEILSKMPLLQRDQIQGWKAIWSQDGGWLAAAKAINAIGQFLKERGVKFGFGGAGSFKQPLFDDEGTTCIGVETADGTKYYADKVVLAAGAWSPTLVDLEDQCCSKAWVYAHIQLTPEEAAEYKGVPVVYNSEYGFFFEPDEFGVIKVCNEFPGFSRFKEHQPYGAPSPKRISVPRSHAKHPTDTYPDASEVSIKKAIATFLPRFQDKELFNRALCWCTDTADSTLLMCEHPKWKNFILATGDSGHSFKILPNVGKYVVELIEGRLPEEMAYQWRWRPGGDALKSRRAAPPKDLADMPGWKHDPKL | 100 | at least 20 mU/mg |  | 39 | at least 20 mU/mg |  | 93 | at least 20 mU/mg
